Laboratory results as given in patent US20260159606A1 (VIB VZW, published 2026).
Where a chain is given by its changes, count along the chain named.

T1: D275N- and R277T-mutant hPIV-3 HN, expressed on transfected HEK293T cells (human parainfluenza virus 3 (hPIV-3), UniProt P08492 1-572)
T1 construct: also called mut HN3
T1 chain: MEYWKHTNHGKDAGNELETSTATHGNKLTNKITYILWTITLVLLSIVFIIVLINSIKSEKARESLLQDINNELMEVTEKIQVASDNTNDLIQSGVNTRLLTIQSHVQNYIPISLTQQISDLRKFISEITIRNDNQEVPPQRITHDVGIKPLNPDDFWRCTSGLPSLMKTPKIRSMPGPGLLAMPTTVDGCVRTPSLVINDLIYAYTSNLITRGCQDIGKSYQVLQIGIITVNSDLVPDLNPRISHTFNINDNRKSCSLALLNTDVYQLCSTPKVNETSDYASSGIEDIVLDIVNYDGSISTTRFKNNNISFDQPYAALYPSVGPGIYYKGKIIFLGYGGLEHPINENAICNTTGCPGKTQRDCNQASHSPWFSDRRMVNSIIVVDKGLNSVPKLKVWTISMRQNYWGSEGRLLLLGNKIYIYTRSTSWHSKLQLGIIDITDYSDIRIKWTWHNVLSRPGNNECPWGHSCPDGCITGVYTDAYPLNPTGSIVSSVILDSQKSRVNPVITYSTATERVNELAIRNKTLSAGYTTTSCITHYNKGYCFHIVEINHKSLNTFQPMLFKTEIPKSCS

T2: hPIV-3 hemagglutinin-neuraminidase (HN), expressed on transfected HEK293T cells (human parainfluenza virus 3 (hPIV-3), UniProt P08492 1-572)
T2 chain: T1 chain with N275D, T277R

B1: VHH A2R3-60 (VHH)
VHH: QVQLQESGGGLVQPGGSLRLDCAASGTTVSINGMGWYRQAPGKQREFVALSTTGGVTNYADSVKGRFTISMDNAKKTVALQMNSLKPEDTAVYYCNAVASPSWGLYDDYWGQGTQVTVSS
notes: also called 2AR3-60
B2: VHH A2R3-57 (VHH)
VHH: QVQLQESGGGLVQPGGSLRLSCAASGSIFSTDAMGWYRQPPGKQRELVATITSGGSTNYVDSVKGRFTISRDNAKNTVYLQMNSLKPEDTAVYYCALHQTTGWGLYNDYWGQGTQVTVSS
notes: also called 2AR-57
B3: VHH A2R3-59 (VHH)
VHH: QVQLQESGGGLVQPGGSLRLSCAASGSISGINGMGWYRQAPGKQRELVAAITSGGSTNYADSVKGRFTISRDNAKNTVDLQMNSLQPEDTAVYYCYVSSTPSWGLYDDYWGQGTQVTVSS
notes: also called 2AR3-59
B4: humanized A2R3-59-Fc construct version 1 (Fc fusion)
chain: DVQLVESGGGLVQPGGSLRLSCAASGSISGINGMGWYRQAPGKQRELVAAITSGGSTNYADSVKGRFTISRDNAKNTVYLQMNSLRPEDTAVYYCYVSSTPSWGLYDDYWGQGTLVTVSSGGGGSGGGGSDKTHTCPPCPAPEAAGGPSVFLFPPKPKDTLMISRTPEVTCVVVDVSHEDPEVKFNWYVDGVEVHNAKTKPREEQYNSTYRVVSVLTVLHQDWLNGKEYKCKVSNKALGAPIEKTISKAKGQPREPQVYTLPPSRDELTKNQVSLTCLVKGFYPSDIAVEWESNGQPENNYKTTPPVLDSDGSFFLYSKLTVDKSRWQQGNVFSCSVMHEALHNHYTQKSLSLSPG
notes: also called h59-Fc; A2R3-h59-Fc
B5: bivalent VHH A2R3-57-57 (VHH)
chain: QVQLQESGGGLVQPGGSLRLSCAASGSIFSTDAMGWYRQPPGKQRELVATITSGGSTNYVDSVKGRFTISRDNAKNTVYLQMNSLKPEDTAVYYCALHQTTGWGLYNDYWGQGTQVTVSSGGGGSGGGGSGGGGSQVQLQESGGGLVQPGGSLRLSCAASGSIFSTDAMGWYRQPPGKQRELVATITSGGSTNYVDSVKGRFTISRDNAKNTVYLQMNSLKPEDTAVYYCALHQTTGWGLYNDYWGQGTQVTVSS
notes: also called bivalent A2R3-57
B6: humanized A2R3-59-59 bivalent construct version 1 (VHH)
chain: DVQLVESGGGLVQPGGSLRLSCAASGSISGINGMGWYRQAPGKQRELVAAITSGGSTNYADSVKGRFTISRDNAKNTVYLQMNSLRPEDTAVYYCYVSSTPSWGLYDDYWGQGTLVTVSSGGGGSGGGGSGGGGSEVQLVESGGGLVQPGGSLRLSCAASGSISGINGMGWYRQAPGKQRELVAAITSGGSTNYADSVKGRFTISRDNAKNTVYLQMNSLRPEDTAVYYCYVSSTPSWGLYDDYWGQGTLVTVSS
notes: also called A2R3-h59-59
B7: humanized A2R3-60-60 bivalent construct version 1 (VHH)
chain: DVQLVESGGGLVQPGGSLRLSCAASGTTVSINGMGWYRQAPGKQREFVALSTTGGVTNYADSVKGRFTISRDNAKNTVYLQMNSLRPEDTAVYYCNAVASPSWGLYDDYWGQGTLVTVSSGGGGSGGGGSGGGGSEVQLVESGGGLVQPGGSLRLSCAASGTTVSINGMGWYRQAPGKQREFVALSTTGGVTNYADSVKGRFTISRDNAKNTVYLQMNSLRPEDTAVYYCNAVASPSWGLYDDYWGQGTLVTVSS
notes: also called A2R3-h60-60
B8: bivalent VHH A2R3-55 (VHH)
chain: QVQLQESGGGLVQAGGSLRLSCAASGSIDRIDAMGWSRQAPGKQRELVATITTGGITNYAVSVKGRFTISRDNAKNTVYLQMNSLKPEDTAVYYCNAQGAPSWGLYEDYWGQGTQVTVSSGGGGSGGGGSGGGGSQVQLQESGGGLVQAGGSLRLSCAASGSIDRIDAMGWSRQAPGKQRELVATITTGGITNYAVSVKGRFTISRDNAKNTVYLQMNSLKPEDTAVYYCNAQGAPSWGLYEDYWGQGTQVTVSS
notes: also called bivalent A2R3-55

Experiments:
[1] = molecular target: T3, hPIV-3 fusion protein (F), expressed on transfected HEK293T cells (human parainfluenza virus 3 (hPIV-3), UniProt P06828 19-539); test: flow cytometry on transfected HEK293T cells (FIG. 4)
T3 construct: whole, on cells

[2] = molecular target: T1, D275N- and R277T-mutant hPIV-3 HN, …; test: flow cytometry on transfected HEK293T cells, VHH 1 or 0.1 µg/ml (FIG. 11C)
[3] = molecular target: T2, hPIV-3 hemagglutinin-neuraminidase …
[4] = molecular target: T1, D275N- and R277T-mutant hPIV-3 HN, …; test: flow cytometry on transfected HEK293T cells (FIG. 11C)
[5] = molecular target: T2, hPIV-3 hemagglutinin-neuraminidase …; test: flow cytometry on transfected HEK293T cells, 10 µg/ml (FIG. 16A)
[6] = molecular target: HN of hPIV-3-GFP virus (on virions and on hPIV-3-infected cells) (human parainfluenza virus 3 (hPIV-3), UniProt P08492 1-572); test: cell-based or functional assay

Binder	binding result [1]	fold reduction of binding at 500 µg/ml of zanamivir [3]	binding result [4]	binding result [5]	further results
B1	no binding (tested: 1 µg/ml)	1.5 fold			binding result [2]: binds
B2	no binding (tested: 1 µg/ml)	~5 fold	no binding (tested: 1 or 0.1 µg/ml)		
B3	no binding (tested: 1 µg/ml)	2.4 fold			binding result [2]: binds
B4				binds	
B5			no binding (tested: 1 or 0.1 µg/ml)		fold higher potency of hPIV-3-GFP neutralization than the monovalent counterpart [6]: ~150 fold
B6				binds	
B7				binds	
B8			no binding (tested: 1 or 0.1 µg/ml)		fold higher potency of hPIV-3-GFP neutralization than the monovalent counterpart [6]: ~50 fold
